# Laboratory results taken from the nanobody polyreactivity screen of Harvey et al. (2022).
# Experiment: yeast display, Sf9 membrane polyspecificity reagent, FACS + sequencing; frameworks hold sequencing errors
# Procedure, shortened: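 Polyreactivity labels are assigned by the sorting gate from which each nanobody was recovered. The gates were low and high (top ~1%), set on anti-HA fluorescence for expression and streptavidin fluorescence for reagent binding. Before sorting, galactose-induced (36–48 hours) yeast display cells were stained for 1 hour at 4 °C with 10% biotinylated, detergent-solubilized Sf9 membrane reagent.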
row,Sequence,polyreactivity (PSR sort gate)
1,QVQLVESGGGLVQAGGSLRLSCAASGSTFVVNAMGWYRQAPGKERELVAAISWSGASTYYADSVKGRFTISRDNAKNTVYLQMKSLIQEDTAVYYCAADYSHYFYYYPSFVKFDYWGQGTQVTVSS,high polyreactivity
2,QVQLVESGGGLVQAGGSLRLSCAASGSTFVVNAMGWYRQAPGKERELVAAITQSGGSTFYADSVKGRFTISRDNAKNTVYLQMNSLKPEDTAVYYRGQGTQVTVSS,low polyreactivity
3,QVQLVESGGGLVQAGGSLRLSCAASGSTFVVYAMGWYRQAPGKERELVAAISSSGGSTYYADSVKGRFTISRDNAKNTVYLQMNSLKPEDTAVYYCAAGSRFVSSRLYYWGQGTQVTVSS,high polyreactivity
4,QVQLVESGGGLVQAGGSLRLSCAASGSTFVVYAMGWYRQAPGKERELVAAITGSGGSTYYADSVKGRFTISRDNAKNTVYLQMNSLKPEDTAVYYCAADLYFYVISWGYGFYYWGQGTQVTVSS,low polyreactivity
5,QVQLVESGGGLVQAGGSLRLSCAASGSTFVVYDMGWDRQAPGKERELVAAITWSGGSTYYADSVKGRFTISRDNAKNTVYLQINSLKPEDTAVYYCNKVTWHQGHDYLGQGTQVTVSS,low polyreactivity
6,QVQLVESGGGLVQAGGSLRLSCAASGSTFVWYAMGWYRQAPGKEREFVATISWSDGSTYYADSVKGRFTISRDNAKNTVYLQKNSLKPEDTAVYYCATDVDRFFTYKYDYWGQGTQVTVSS,low polyreactivity
7,QVQLVESGGGLVQAGGSLRLSCAASGSTFVWYAMGWYRQAPGKESELVAVIDWSGGSTSYADSVKGRFTISRDNAKNTVYLQMNSLKPEDTAVYYCAAQLGVISRGNYWGQGTQVTVSS,low polyreactivity
8,QVQLVESGGGLVQAGGSLRLSCAASGSTFVWYAMGWYRQEPGKERELVAAINFGGTTYYADSVNGRFTISRDNAKNTVYLQMNSLKTEDTAVYYCATEYDYGSWYPDGWGIFDYWGQGTQVTVSS,low polyreactivity
9,QVQLVESGGGLVQAGGSLRLSCAASGSTFVWYGMGWYRQQPGNQREFVAAIYTSGGRTYYADSVKGRFTISRDNAKITVYLQMNSLKPEDTALYYCDTRPYFTYRWYDYWGQGTQVTVSS,high polyreactivity
10,QVQLVESGGGLVQAGGSLRLSCAASGSTFVWYVMGWYRQAPGNERELVAAISRSGGTTFYADSVKGRFTISRANAKNTVYLQMNSLKPEDTAVYYCAAEDVAYRPGYDYWGQGTQVTVSS,high polyreactivity
11,QVQLVESGGGLVQAGGSLRLSCAASGSTFVYMGWYRQAPGKEREFVAAITWSGGSTYYADSVKGRFTISRDNAKNTVYLQMNSLKPEDTAVNYCNAVSVIPGWARYYSWGQGTQVSVSS,low polyreactivity
12,QVQLVESGGGLVQAGGSLRLSCAASGSTFVYMGWYRQAPGKEREFVAAITWSGGSTYYADSVKGRFTISRDNAKNTVYLQMNSLKPEDTAVYYCNAVSDIPGWARYYYWGQGTQVTVSS,low polyreactivity
13,QVQLVESGGGLVQAGGSLRLSCAASGSTFVYNAMGWYRQAPGKERELVAAISSGGSTYYADSVKGRFTISRDNAKNTVYLQMNSLKPEDTAVYYCNARGSWRRDKYGTYYRYDYWGQGTQVTVSS,high polyreactivity
14,QVQLVESGGGLVQAGGSLRLSCAASGSTFVYNAMGWYRQAPGKERELVAAISSRGGGTYYADSVKGRFTISRDNAKNSVYLQMYSLKPEDTAVYYCNTLPYTHGSNDYWGQGTQVTVSS,high polyreactivity
15,QVQLVESGGGLVQAGGSLRLSCAASGSTFVYNAMGWYRQAPGKERELVAAITRRGGGTYYADSVKGRFTISRDNAKNTVYLQMNSLKPEDTAVYYCAADSRGWSLDGDYWGQGTQVTVSS,low polyreactivity
16,QVQLVESGGGLVQAGGSLRLSCAASGSTFVYNAMGWYRQAPGKERELVAGIRSSGDRTYYADSVKGRFTISRDNGKNTVYLQMNSLKPEDTAVYYCAAYLGRDPWFSRQGYGYWGQGTQVTVSS,high polyreactivity
17,QVQLVESGGGLVQAGGSLRLSCAASGSTFVYNDMGWYRQAPGKEGELVAGITTSGGSTYYADSVKGRFTISRDNAKNTVYLQINSLKPEDTAVYYCAARAFSAWLEMDYWGQGTQVTVSS,low polyreactivity
18,QVQLVESGGGLVQAGGSLRLSCAASGSTFVYNDMGWYRQAPGKERELVAVITSGGNTYYADSVKGRFTISRDNAKNTVYLQMNSLKPEDTAVYYCATRWYRFYPSDYWGQGTQVTVSS,low polyreactivity
19,QVQLVESGGGLVQAGGSLRLSCAASGSTFVYYAMGWYRPAPGKERELVAAISKRGGSTYYADSVKGRFTISRDNAKNTVYLQMNSLKPEDTAVYHCAADQARGRYTLDYWGQGTQVTVSS,high polyreactivity
20,QVQLVESGGGLVQAGGSLRLSCAASGSTFVYYAMGWYRQAPGKEREFVAAISTNGGSTYYADSVKGRYTISRDNAKNTVYLQMNSLKPEDTAVYYCAARWYWGQGTQGTVSS,high polyreactivity
21,QVQLVESGGGLVQAGGSLRLSCAASGSTFVYYAMGWYRQAPGKEREFVATIYRGDNTNYADSVKGRFTISRDNAKNTVYLQMNSLKPEDTAVYYCAADEPKWDLGGGTYLRDYWGLGTQVTVSS,low polyreactivity
22,QVQLVESGGGLVQAGGSLRLSCAASGSTFVYYAMGWYRQAPGKERELVAAIRNGDGTNYADSVKGRFTISRDNAKNTVYLQMNSLKPEDTAVYYCAAPQGEYFYVYEFDYWGQGTQVTVSS,low polyreactivity
23,QVQLVESGGGLVQAGGSLRLSCAASGSTFVYYAMGWYRQAPGKERELVAAISTSAGSTYYADSVKGRFTISRDNAKNTVYLQMNSLKPEDTAVYYCAAGRYYRGYYWGQGTQVTVSS,high polyreactivity
24,QVQLVESGGGLVQAGGSLRLSCAASGSTFVYYAMGWYRQAPGKERELVAAISWSGTRTYYADSVKGRFTISRDNAKNTVYLQMNSLKPEDTAVYYCATRKQSRSVGYNYWGQGTQVTVSS,high polyreactivity
25,QVQLVESGGGLVQAGGSLRLSCAASGSTFVYYAMGWYRQAPGKERELVAAITASGGGTYYADSVKGRFTISRDNAKNTVYLQMNSLKPEDTAVYYCNRGYDYWGQGTQVTVSS,low polyreactivity
26,QVQLVESGGGLVQAGGSLRLSCAASGSTFVYYAMGWYRQAPGKERELVAAITSRGGSTYYADSVKGRFTISRDNAKNTVYLQMNSLKPEDTAVYYCAKYAYSFPYNYWGQGTQVTVSS,high polyreactivity
27,QVQLVESGGGLVQAGGSLRLSCAASGSTFVYYAMGWYRQAPGKERELVAAMTSSGGRTYYADSVKGRFTISRDNAKNTVYLQMNSLKPEDTAVYYCATPSTRLYSVTSQGYGYWGQGTQVTVSS,high polyreactivity
28,QVQLVESGGGLVQAGGSLRLSCAASGSTFVYYAMGWYRQAPGKERELVADISWSGGDTYYADSVKGRFTISRDNAKNTVYLQMNSLKPEDTAVYYCAAEWSTPSYVGFADGFEYWGQGTQVTVSS,low polyreactivity
29,QVQLVESGGGLVQAGGSLRLSCAASGSTFVYYAMGWYRQAPGKERELVASITGGGRTNYADSVKGRFTISRENAKNNVYLQMNSLKPEDTAVYYCAKDHASYYYWPSVLPYDHWGQGSQVTVSS,low polyreactivity
30,QVQLVESGGGLVQAGGSLRLSCAASGSTFVYYAMGWYSQAPGKERELVAAITRSGGRTYYADSVKGRFTNSRDNAKNRVYLQMNSLKPEDTAVYYCAADDYTGYGYWGQGTQVTVSS,high polyreactivity
